Test results reported in PMC11027793 (Molecular cell, 2022).
Where two headings read alike, the source gives them in different places. Where no end group is shown, it is not given here. MBP = not defined here

B6: GST-Mios Ring (785–875) (domain or fragment, UniProt Q9NXC5 785-875, looked up)
chain: CALCLINMGTPVSSCPGGTKSDEKVDLSKDKKLAQFNNWFTWCHNCRHGGHAGHMLSWFRDHAECPVSACTCKCMQLDTTGNLVPAETVQP

Tests used:
Assay in all cases: pull-down
[1] = molecular target: T1, GST-WDR59 wild-type (UniProt Q6PJI9 1-974)
T1 sequence (looked up): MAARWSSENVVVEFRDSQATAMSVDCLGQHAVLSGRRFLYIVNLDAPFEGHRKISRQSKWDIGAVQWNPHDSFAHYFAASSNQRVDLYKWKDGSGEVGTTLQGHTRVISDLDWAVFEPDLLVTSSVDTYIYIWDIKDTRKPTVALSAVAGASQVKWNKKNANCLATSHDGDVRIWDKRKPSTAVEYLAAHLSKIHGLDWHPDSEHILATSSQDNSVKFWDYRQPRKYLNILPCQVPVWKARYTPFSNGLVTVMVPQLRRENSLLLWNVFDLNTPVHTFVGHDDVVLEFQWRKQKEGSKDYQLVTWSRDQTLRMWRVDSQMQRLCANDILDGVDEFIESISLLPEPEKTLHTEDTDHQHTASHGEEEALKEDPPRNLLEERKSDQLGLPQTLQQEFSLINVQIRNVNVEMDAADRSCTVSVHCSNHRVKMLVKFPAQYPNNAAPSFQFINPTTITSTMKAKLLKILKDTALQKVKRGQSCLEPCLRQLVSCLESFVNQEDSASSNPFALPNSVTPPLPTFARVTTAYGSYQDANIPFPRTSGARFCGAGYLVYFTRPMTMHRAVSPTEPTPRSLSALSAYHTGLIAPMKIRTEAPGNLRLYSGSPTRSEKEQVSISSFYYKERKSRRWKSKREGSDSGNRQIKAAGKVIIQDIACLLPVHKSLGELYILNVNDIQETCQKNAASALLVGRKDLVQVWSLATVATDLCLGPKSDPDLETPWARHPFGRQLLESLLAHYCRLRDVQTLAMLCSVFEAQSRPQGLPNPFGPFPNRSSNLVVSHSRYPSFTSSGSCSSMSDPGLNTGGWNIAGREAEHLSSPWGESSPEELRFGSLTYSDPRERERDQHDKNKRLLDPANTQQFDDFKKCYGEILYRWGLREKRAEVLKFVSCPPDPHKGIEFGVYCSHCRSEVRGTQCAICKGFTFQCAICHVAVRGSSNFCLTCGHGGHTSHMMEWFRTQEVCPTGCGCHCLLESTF

[2] = molecular target: B6
[3] = molecular target: T2, Flag-WDR24 purified from HEK293T cells (UniProt Q96S15 1-790)
T2 sequence (looked up): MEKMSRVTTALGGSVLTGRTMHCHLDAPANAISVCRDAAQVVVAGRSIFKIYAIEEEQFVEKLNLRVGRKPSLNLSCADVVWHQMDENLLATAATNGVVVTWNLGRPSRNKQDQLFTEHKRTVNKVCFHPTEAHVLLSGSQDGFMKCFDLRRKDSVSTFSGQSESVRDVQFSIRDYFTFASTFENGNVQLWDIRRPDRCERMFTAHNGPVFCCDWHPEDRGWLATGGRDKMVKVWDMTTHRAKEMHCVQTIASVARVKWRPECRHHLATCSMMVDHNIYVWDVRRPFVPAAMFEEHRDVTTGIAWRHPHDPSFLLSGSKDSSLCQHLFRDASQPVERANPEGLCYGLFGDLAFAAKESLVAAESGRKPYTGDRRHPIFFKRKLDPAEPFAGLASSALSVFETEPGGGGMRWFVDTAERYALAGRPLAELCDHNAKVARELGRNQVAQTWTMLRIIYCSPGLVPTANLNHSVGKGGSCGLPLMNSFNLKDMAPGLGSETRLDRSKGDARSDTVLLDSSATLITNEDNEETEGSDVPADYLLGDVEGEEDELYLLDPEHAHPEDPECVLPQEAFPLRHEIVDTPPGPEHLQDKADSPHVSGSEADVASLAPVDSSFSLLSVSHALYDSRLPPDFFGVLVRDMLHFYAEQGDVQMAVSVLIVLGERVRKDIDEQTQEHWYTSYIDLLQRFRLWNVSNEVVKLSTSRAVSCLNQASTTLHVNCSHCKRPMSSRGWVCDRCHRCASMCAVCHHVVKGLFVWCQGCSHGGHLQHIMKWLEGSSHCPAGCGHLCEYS

[4] = molecular target: T3, GST-WDR24 wild-type (full-length) (UniProt Q96S15 1-790)
T3 sequence (looked up): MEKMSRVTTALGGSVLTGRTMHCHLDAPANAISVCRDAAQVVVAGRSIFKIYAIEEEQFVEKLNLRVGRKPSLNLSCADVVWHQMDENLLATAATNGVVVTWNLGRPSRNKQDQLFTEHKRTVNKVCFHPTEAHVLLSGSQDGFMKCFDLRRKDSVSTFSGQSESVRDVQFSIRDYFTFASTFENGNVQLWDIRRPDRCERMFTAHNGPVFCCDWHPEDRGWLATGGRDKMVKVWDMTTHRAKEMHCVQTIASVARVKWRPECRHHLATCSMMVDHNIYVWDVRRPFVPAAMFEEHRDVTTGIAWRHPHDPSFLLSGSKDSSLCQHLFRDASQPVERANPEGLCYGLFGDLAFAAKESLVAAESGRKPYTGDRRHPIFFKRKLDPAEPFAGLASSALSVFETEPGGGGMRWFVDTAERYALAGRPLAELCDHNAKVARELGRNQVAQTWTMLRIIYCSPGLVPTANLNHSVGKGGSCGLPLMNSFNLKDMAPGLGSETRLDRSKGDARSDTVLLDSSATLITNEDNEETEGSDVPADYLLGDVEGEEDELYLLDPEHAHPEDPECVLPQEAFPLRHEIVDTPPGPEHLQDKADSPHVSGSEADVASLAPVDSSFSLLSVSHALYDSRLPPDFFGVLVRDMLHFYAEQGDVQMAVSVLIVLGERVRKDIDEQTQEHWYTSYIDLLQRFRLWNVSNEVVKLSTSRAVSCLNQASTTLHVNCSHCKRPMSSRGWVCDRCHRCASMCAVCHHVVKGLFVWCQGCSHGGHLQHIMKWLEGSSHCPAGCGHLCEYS

[5] = molecular target: T4, Flag-WDR59 purified from HEK293T cells (UniProt Q6PJI9 1-974)
T4 sequence (looked up): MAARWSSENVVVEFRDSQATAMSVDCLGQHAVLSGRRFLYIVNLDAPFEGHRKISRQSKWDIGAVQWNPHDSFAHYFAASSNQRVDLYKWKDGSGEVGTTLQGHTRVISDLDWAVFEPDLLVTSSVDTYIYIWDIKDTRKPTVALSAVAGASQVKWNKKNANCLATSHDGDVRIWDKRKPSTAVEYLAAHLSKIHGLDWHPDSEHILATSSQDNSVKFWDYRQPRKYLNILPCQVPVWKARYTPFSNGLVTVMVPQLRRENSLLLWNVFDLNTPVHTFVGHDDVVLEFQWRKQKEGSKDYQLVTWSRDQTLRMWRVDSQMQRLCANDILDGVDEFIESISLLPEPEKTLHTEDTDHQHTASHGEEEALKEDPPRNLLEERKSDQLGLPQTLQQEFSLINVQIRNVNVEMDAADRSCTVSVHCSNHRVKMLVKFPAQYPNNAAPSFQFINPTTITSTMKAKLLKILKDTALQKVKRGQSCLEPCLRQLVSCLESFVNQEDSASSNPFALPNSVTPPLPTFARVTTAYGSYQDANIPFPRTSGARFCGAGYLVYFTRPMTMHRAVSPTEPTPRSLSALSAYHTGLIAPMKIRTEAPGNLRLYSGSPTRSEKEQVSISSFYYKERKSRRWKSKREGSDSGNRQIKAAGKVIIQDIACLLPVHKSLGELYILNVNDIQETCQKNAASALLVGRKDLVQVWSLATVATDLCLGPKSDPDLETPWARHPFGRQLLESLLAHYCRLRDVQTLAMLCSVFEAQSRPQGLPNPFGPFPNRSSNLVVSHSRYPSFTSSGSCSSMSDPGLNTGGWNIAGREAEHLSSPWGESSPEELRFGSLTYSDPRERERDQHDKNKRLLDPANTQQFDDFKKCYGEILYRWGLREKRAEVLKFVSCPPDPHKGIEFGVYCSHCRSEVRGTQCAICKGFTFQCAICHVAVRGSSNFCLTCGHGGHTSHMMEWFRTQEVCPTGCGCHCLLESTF

[6] = molecular target: T2, Flag-WDR24 purified from HEK293T cells; remark: listed apart in the source

B1: Flag-Mios purified from HEK293T cells (natural protein, UniProt Q9NXC5 1-875, looked up)
chain: MSGTKPDILWAPHHVDRFVVCDSELSLYHVESTVNSELKAGSLRLSEDSAATLLSINSDTPYMKCVAWYLNYDPECLLAVGQANGRVVLTSLGQDHNSKFKDLIGKEFVPKHARQCNTLAWNPLDSNWLAAGLDKHRADFSVLIWDICSKYTPDIVPMEKVKLSAGETETTLLVTKPLYELGQNDACLSLCWLPRDQKLLLAGMHRNLAIFDLRNTSQKMFVNTKAVQGVTVDPYFHDRVASFYEGQVAIWDLRKFEKPVLTLTEQPKPLTKVAWCPTRTGLLATLTRDSNIIRLYDMQHTPTPIGDETEPTIIERSVQPCDNYIASFAWHPTSQNRMIVVTPNRTMSDFTVFERISLAWSPITSLMWACGRHLYECTEEENDNSLEKDIATKMRLRALSRYGLDTEQVWRNHILAGNEDPQLKSLWYTLHFMKQYTEDMDQKSPGNKGSLVYAGIKSIVKSSLGMVESSRHNWSGLDKQSDIQNLNEERILALQLCGWIKKGTDVDVGPFLNSLVQEGEWERAAAVALFNLDIRRAIQILNEGASSEKGDLNLNVVAMALSGYTDEKNSLWREMCSTLRLQLNNPYLCVMFAFLTSETGSYDGVLYENKVAVRDRVAFACKFLSDTQLNRYIEKLTNEMKEAGNLEGILLTGLTKDGVDLMESYVDRTGDVQTASYCMLQGSPLDVLKDERVQYWIENYRNLLDAWRFWHKRAEFDIHRSKLDPSSKPLAQVFVSCNFCGKSISYSCSAVPHQGRGFSQYGVSGSPTKSKVTSCPGCRKPLPRCALCLINMGTPVSSCPGGTKSDEKVDLSKDKKLAQFNNWFTWCHNCRHGGHAGHMLSWFRDHAECPVSACTCKCMQLDTTGNLVPAETVQP
B1: binds [1].

{His-MBP}-CAVCHHVVKGLFVWCQGCSHGGHLQHIMKWLEGSSHCPAGCGHLCEYS (domain or fragment, UniProt Q96S15 743-790, looked up, cysteine pairing not given here; reading uncertain) [His-MBP-WDR24 Ring (743–790)]: binds [2].

B2: His-MBP-WDR59 Ring (924–974) (domain or fragment, UniProt Q6PJI9 924-974, looked up)
chain: {His-MBP}-CAICHVAVRGSSNFCLTCGHGGHTSHMMEWFRTQEVCPTGCGCHCLLESTF
modifications: cysteine pairing not given here; reading uncertain
B2: binds [2].

B3: His6-tag UBE2D3 (enzyme)
chain: not shown
B3: binds [3]; binds [4].

B4: Flag-Sestrin2 (pRK5-FLAG-Sestrin2) (natural protein, UniProt P58004 1-480, looked up)
chain: MIVADSECRAELKDYLRFAPGGVGDSGPGEEQRESRARRGPRGPSAFIPVEEVLREGAESLEQHLGLEALMSSGRVDNLAVVMGLHPDYFTSFWRLHYLLLHTDGPLASSWRHYIAIMAAARHQCSYLVGSHMAEFLQTGGDPEWLLGLHRAPEKLRKLSEINKLLAHRPWLITKEHIQALLKTGEHTWSLAELIQALVLLTHCHSLSSFVFGCGILPEGDADGSPAPQAPTPPSEQSSPPSRDPLNNSGGFESARDVEALMERMQQLQESLLRDEGTSQEEMESRFELEKSESLLVTPSADILEPSPHPDMLCFVEDPTFGYEDFTRRGAQAPPTFRAQDYTWEDHGYSLIQRLYPEGGQLLDEKFQAAYSLTYNTIAMHSGVDTSVLRRAIWNYIHCVFGIRYDDYDYGEVNQLLERNLKVYIKTVACYPEKTTRRMYNLFWRHFRHSEKVHVNLLLLEARMQAALLYALRAITRYMT
B4: binds [4].

B5: GST-fusion protein of full-length wild-type Mios (natural protein, UniProt Q9NXC5 1-875, looked up)
chain: MSGTKPDILWAPHHVDRFVVCDSELSLYHVESTVNSELKAGSLRLSEDSAATLLSINSDTPYMKCVAWYLNYDPECLLAVGQANGRVVLTSLGQDHNSKFKDLIGKEFVPKHARQCNTLAWNPLDSNWLAAGLDKHRADFSVLIWDICSKYTPDIVPMEKVKLSAGETETTLLVTKPLYELGQNDACLSLCWLPRDQKLLLAGMHRNLAIFDLRNTSQKMFVNTKAVQGVTVDPYFHDRVASFYEGQVAIWDLRKFEKPVLTLTEQPKPLTKVAWCPTRTGLLATLTRDSNIIRLYDMQHTPTPIGDETEPTIIERSVQPCDNYIASFAWHPTSQNRMIVVTPNRTMSDFTVFERISLAWSPITSLMWACGRHLYECTEEENDNSLEKDIATKMRLRALSRYGLDTEQVWRNHILAGNEDPQLKSLWYTLHFMKQYTEDMDQKSPGNKGSLVYAGIKSIVKSSLGMVESSRHNWSGLDKQSDIQNLNEERILALQLCGWIKKGTDVDVGPFLNSLVQEGEWERAAAVALFNLDIRRAIQILNEGASSEKGDLNLNVVAMALSGYTDEKNSLWREMCSTLRLQLNNPYLCVMFAFLTSETGSYDGVLYENKVAVRDRVAFACKFLSDTQLNRYIEKLTNEMKEAGNLEGILLTGLTKDGVDLMESYVDRTGDVQTASYCMLQGSPLDVLKDERVQYWIENYRNLLDAWRFWHKRAEFDIHRSKLDPSSKPLAQVFVSCNFCGKSISYSCSAVPHQGRGFSQYGVSGSPTKSKVTSCPGCRKPLPRCALCLINMGTPVSSCPGGTKSDEKVDLSKDKKLAQFNNWFTWCHNCRHGGHAGHMLSWFRDHAECPVSACTCKCMQLDTTGNLVPAETVQP
B5: binds [5].

B6: binds [5]; binds [6].
